Consider 1 molecule from US20220348635A1, “COMPOSITIONS AND METHODS FOR NEUROLOGICAL DISEASES” (Coda Biotherapeutics, Inc., priority 2019, published 2022).

Format in all cases: cell-based
The nature of assay [1]: YFP quench plate reader assay, response to APN-1125. The following applies: LX293T YFP reporter cells. The gist of the method:
(§1)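 Double mutants of engineered chimeric receptor SEQ ID NO:33 are expressed transiently in YFP-reporter LX293T cells and challenged with ligand doses in iodide buffer. Quench is measured on a plate reader over 2 min, giving percent quench […].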

Assay [2] is described as follows: YFP quench plate reader assay, response to TC-5619. The following applies: LX293T YFP reporter cells. The gist of the method:
as §1

Assay [3] in a line: High throughput electrophysiology in HEK293T cells, acetylcholine. The procedure: To confirm the EC50s determined by plate reader as well as develop a better understanding of maximum current flow, the engineered receptors were subjected to high throughput electrophysiology system, as described below. For HEK293T studies, cDNAs encoding ion channels were cloned into pcDNA3.1 using standard recombination techniques. HEK293T cells from Clontech (Lenti-X™ 293T Cell Line) were cultured in DMEM supplemented with 10% FBS and 1% Pen/Strep to 40-50% confluence using standard cell culture protocols, transfected with ion channel plasmids at a concentration of 18 μg per 15 cm dish using Fugene 6, and grown for an additional 24 hours. Cells were then assayed on a electrophysiological system (IonFluxHT and/or Mercury, Fluxion Biosciences) in which dose-response relationships may be assessed through a microfluidics-based platform for establishing whole cell configurations. […] Data were then analyzed off-line using custom Python scripts to convert data to .csv format, re-plot traces, and apply QC measurements to reject unstable recordings (i.e. thresholding based on access resistance and/or standard deviation in baseline, as well as artifact rejection). Peak currents were then calculated and population data were fit using a 4-parameter logistic equation as described by the Hill Equation. […]

Assay [4] in a line: High throughput electrophysiology in HEK293T cells, AZD-0328. The following applies: HEK293T cells, held at −60 mV. The gist of the method: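 Engineered receptors transiently expressed in HEK293T cells, recorded 24 h post-transfection by automated whole-cell patch clamp at −60 mV, CsCl intracellular, pH 7.2 extracellular buffer. Progressive agonist doses applied for 1 s; peak currents fit to a 4-parameter Hill equation for EC50.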

Assay [5] in a line: Rheobase shift in rat DRG neurons, TC-5619. The procedure:
Using whole cell manual patch clamp electrophysiology in HEK293 cells and rat DRG neurons, the EC50 of the various engineered receptors disclosed herein to Ach and non-native ligands was measured. The rheobase shift was also measured in rat DRG neurons, which reflects the efficacy of the receptors. To calculate the rheobase, first, the amount of current that can produce an action potential was determined. Then the ligand was added, followed by a step wise increase in the current injected up to 700 pA. The current injected after addition of the ligand was divided by, the original current injected to obtain an action potential, to calculate the rheobase. The EC50 was calculated using the Hill equation with peak current measurements from escalating doses of ligand.

Assay [6] in a line: Evoked action potentials in transduced rat DRG neurons, acetylcholine. The following applies: Acetylcholine at 3.0 mM, n=4. The method, then: Acetylcholine at 3.0 mM had no effect on evoked action potentials in transduced neurons (n=4) (FIG. 4B).

B1: Y115D, L131Q in SEQ ID NO: 33: CR-11 (Chemogenic receptor-11): SEQ ID NO: 33 with substitutions Y115D and L131Q (protein)
chain: MRCSPGGVWLALAASLLHVSLQGEFQRKLYKELVKNYNPLERPVANDSQPLTVYFSLSLLQIMDVDEKNQVLTTNIWLQMSWTDHYLQWNVSEYPGVKTVRFPDGQIWKPDILLDNSADERFDATFHTNVQVNSSGHCQYLPPGIFKSSCPMDLKNFPMDVQTCKLKFGSWSYGGWSLDLQMQEADISGYIPNGEWDLVGIPGKRSERFYECCKEPYPDVTFTVTMRRRMGYYLIQMYIPSLLIVILSWISFWINMDAAPARVGLGITTVLTMTTQSSGSRASLPKVSYVKAIDIWMAVCLLFVFSALLEYAAVNFVSRQHKELLRFRRKRRHHKSPMLNLFQEDEAGEGRFNFSAYGMGPACLQAKDGISVKGANNSNTTNPPPAPSKSPEEMRKLFIQRAKKIDKISRIGFPMAFLIFNMFYWIIYKIVRREDVHNQ
modifications: synthetic sequence of chimeric LGIC
Turning to B1, the “percent quench of YFP fluorescence, 100 nM apn” value in assay [1] (100 nM APN-1125) was −10.03%. For the same molecule, the “percent quench of YFP fluorescence, 1 uM apn” value in assay [1] (1 uM APN-1125) is listed as −3.33%. The “percent quench of YFP fluorescence, 30 uM apn” value in assay [1] (30 uM APN-1125) came to 6.96%. In assay [2] (1 nM TC-5619), the “percent quench of YFP fluorescence, 1 nM brd” value worked out at 0.92%. In addition, the “percent quench of YFP fluorescence, 3 nM brd” value in assay [2] (3 nM TC-5619) is reported as −4.65%. Moreover, the “percent quench of YFP fluorescence, 10 nM brd” value in assay [2] (10 nM TC-5619) amounted to 0.38%. Also, the “percent quench of YFP fluorescence, 30 nM brd” value in assay [2] (30 nM TC-5619) worked out at 8.96%. Further, in assay [2] (100 nM TC-5619), the “percent quench of YFP fluorescence, 100 nM brd” value turned out to be 12.18%. Besides, the “percent quench of YFP fluorescence, 300 nM brd” value in assay [2] (300 nM TC-5619) is −0.3%. For the same molecule, in assay [2] (1 uM TC-5619), the “percent quench of YFP fluorescence, 1 uM brd” value was 45.47%. Moreover, the “fold reduced potency to acetylcholine compared to wild type receptor” value in assay [3] is listed as “over 500 fold”. Also, the “EC50 AZD-0328” value in assay [4] was “no activity”. In assay [5] (TC5619 @ EC90), the “Rheobase Shift; Rat DRG Neurons, +TC-5619” value is 625 ± 35 pA. Further, the “Rheobase Shift; Rat DRG Neurons, Baseline” value in assay [5] (receptor-expressing rat DRG neurons, before ligand) amounted to 163 ± 28 pA. Moreover, the “effect on evoked action potentials” value in assay [6] is “no effect”.
